# Measured values from publication PMC8558838 (The Journal of Experimental Medicine, 2021).
# T1: mHVEM^−LIGHT (H86D-L90A) soluble protein, mHVEM-hIgG1 format (mouse, UniProt Q80WM9 39-206, H86D | L90A)
# T1 construct: mouse HVEM (TNFRSF14) residues Q39-Q206 with H86D and L90A; also called mHVEM H86D-L90A double mutein; source: expressed in soluble form (Expi293, purified on Ni resin, as told for mHVEM-hIgG1); not shown: Fc (human IgG1), C-terminal, kept
# T1 sequence (looked up): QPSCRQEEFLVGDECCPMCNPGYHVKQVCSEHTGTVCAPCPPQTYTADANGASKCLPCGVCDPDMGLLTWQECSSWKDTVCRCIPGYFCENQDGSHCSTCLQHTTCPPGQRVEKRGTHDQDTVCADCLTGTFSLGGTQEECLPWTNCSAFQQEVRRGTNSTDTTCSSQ
# T2: mHVEM (Q39-Q206)-human IgG1-hexa-His, WT (mouse, UniProt Q80WM9 39-206)
# T2 chain: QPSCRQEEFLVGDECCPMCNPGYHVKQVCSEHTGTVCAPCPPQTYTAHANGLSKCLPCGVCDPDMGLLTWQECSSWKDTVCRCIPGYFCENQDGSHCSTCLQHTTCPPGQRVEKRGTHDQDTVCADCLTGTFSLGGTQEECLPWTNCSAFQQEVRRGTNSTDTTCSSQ
# T3: mHVEM^−BT/160 (G72R-V74A) soluble protein, mHVEM-hIgG1 format (mouse, UniProt Q80WM9 39-206, G72R | V74A)
# T3 construct: mouse HVEM (TNFRSF14) residues Q39-Q206 with G72R and V74A; also called mHVEM G72R-V74A double mutein; source: expressed in soluble form (Expi293, purified on Ni resin, as told for mHVEM-hIgG1); not shown: Fc (human IgG1), C-terminal, kept
# T3 sequence (looked up): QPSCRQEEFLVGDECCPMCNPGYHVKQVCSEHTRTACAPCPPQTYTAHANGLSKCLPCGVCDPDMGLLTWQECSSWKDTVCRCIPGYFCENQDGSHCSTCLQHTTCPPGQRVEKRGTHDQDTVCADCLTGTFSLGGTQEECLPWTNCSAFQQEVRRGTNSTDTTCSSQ
# T4: mHVEM (Q39-Q206)-human IgG1-hexa-His, WT (mouse, UniProt Q80WM9 39-206)
# T4 construct: mouse HVEM (TNFRSF14) residues Q39-Q206; pcDNA 3.3; also called mHVEM-hIgG1; mHVEM^WT; source: Expi293, transfected, purified (Ni resin); not shown: Fc (human IgG1), C-terminal, kept
# T4 sequence (looked up): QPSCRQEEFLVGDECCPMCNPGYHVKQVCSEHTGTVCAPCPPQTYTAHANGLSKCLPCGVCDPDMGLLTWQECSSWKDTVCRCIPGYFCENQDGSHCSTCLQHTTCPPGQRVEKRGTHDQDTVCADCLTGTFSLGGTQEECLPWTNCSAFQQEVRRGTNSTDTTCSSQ
# B1: human LIGHT extracellular domain (L83-V240) (ligand, UniProt O43557 83-240, looked up)
# chain: LIQERRSHEVNPAAHLTGANSSLTGSGGPLLWETQLGLAFLRGLSYHDGALVVTKAGYYYIYSKVQLGGVGCPLGLASTITHGLYKRTPRYPEELELLVSQQSPCGRATSSSRVWWDSSFLGGVVHLEAGEKVVVRVLDERLVRLRDGTRSYFGAFMV
# notes: human LIGHT (TNFSF14), extracellular domain, residues L83-V240; Homotrimer; The His tag is used for detection in the flow cytometry staining; also called hLIGHT; TNFSF14; not shown: His6 (HHHHHHG), N-terminal, kept
# Legend:
# [1] = target: mouse CD160 (30I-154H) with C-terminal …, biotinylated (UniProt O88875); experiment: flow cytometry, cell–protein method
# [2] = target: full-length mouse BTLA-EGFP, on cells (UniProt Q7TSA3); experiment: flow cytometry, cell–cell method
# [3] = target: full-length mouse LIGHT, on cells (mLIGHT-IRES-EGFP) (UniProt Q9QYH9); experiment: flow cytometry, cell–cell method
# mBTLA protein = experiment: flow cytometry, cell–protein method; conditions: parent: est. 1.0; read off a plot
# [4] = target: human LIGHT extracellular domain (L83-V240) (human) (UniProt O43557); experiment: crystal structure; single-chain hCD160–hHVEM and hLIGHT mixed in a 1:1 molar ratio, 5 mg/ml in 10 mM Hepes pH 7.0, 150 mM NaCl; crystallised in 12% PEG3350, 4% tacsimate; 3.5 Å
# [5] = target: T1, mHVEM^−LIGHT (H86D-L90A) soluble …; experiment: BLI; Octet; mHVEM-hIgG1 immobilised on the sensors, challenged with different concentrations of mLIGHT, mBTLA or mCD160; steady-state fit for mLIGHT, 1:1 Langmuir model for mBTLA and mCD160; conditions: both partners purified
# [6] = target: T2, mHVEM (Q39-Q206)-human IgG1-hexa-His, WT; experiment: BLI
# [7] = target: mHVEM^−LIGHT (H86D-L90A) soluble protein, mHVEM-hIgG1 format (mouse, UniProt Q80WM9 39-206, H86D | L90A); experiment: BLI
# [8] = target: the molecule itself; experiment: crystal structure; hHVEM and hLIGHT mixed in a 1:1 molar ratio, 3 mg/ml in 10 mM Hepes pH 7.0, 150 mM NaCl; crystallised in 0.1 M Bis-Tris pH 5.5, 0.2 M MgCl2, 9% PEG3350; 2.30 Å
# [9] = target: B1; experiment: SEC; analytical SEC; equal molar equivalents of hLIGHT and hHVEM monomers mixed; conditions: both partners purified
# [10] = target: T3, mHVEM^−BT/160 (G72R-V74A) soluble …; experiment: BLI; Octet; mHVEM-hIgG1 immobilised on the sensors, challenged with different concentrations of mLIGHT, mBTLA or mCD160; steady-state fit for mLIGHT, 1:1 Langmuir model for mBTLA and mCD160; conditions: both partners purified
# [11] = target: T4, mHVEM (Q39-Q206)-human IgG1-hexa-His, WT; experiment: as above; conditions: both partners purified
# [12] = target: mHVEM^−BT/160 (G72R-V74A) soluble protein, mHVEM-hIgG1 format (mouse, UniProt Q80WM9 39-206, G72R | V74A); experiment: BLI
molecule,measurement,setting,value
"full-length WT mouse HVEM-mCherry, on cells (from UniProt Q80WM9) A76A",ratio to parent,[1],1
same,ratio to parent,[2],1.1
same,ratio to parent,[3],1.2
"full-length WT mouse HVEM-mCherry, on cells (from UniProt Q80WM9) H86D; L90R",ratio to parent,mBTLA protein,0.63
single-chain hCD160–hHVEM fusion protein,stoichiometry N (hCD160–hHVEM per hLIGHT homotrimer),[4],3
"full-length WT mouse HVEM-mCherry, on cells (from UniProt Q80WM9) G72D; V74R",ratio to parent,mBTLA protein,0.01
"full-length WT mouse HVEM-mCherry, on cells (from UniProt Q80WM9) H86A; L90A",ratio to parent,mBTLA protein,0.78
"full-length WT mouse HVEM-mCherry, on cells (from UniProt Q80WM9) H86R; L90A",ratio to parent,mBTLA protein,0.66
"full-length WT mouse HVEM-mCherry, on cells (from UniProt Q80WM9) H86D; L90D",ratio to parent,mBTLA protein,0.82
"full-length WT mouse HVEM-mCherry, on cells (from UniProt Q80WM9) G72R; V74A",ratio to parent,mBTLA protein,0.01
"full-length WT mouse HVEM-mCherry, on cells (from UniProt Q80WM9) G72A; V74D",ratio to parent,mBTLA protein,0.01
"full-length WT mouse HVEM-mCherry, on cells (from UniProt Q80WM9) G72D; V74A",ratio to parent,mBTLA protein,0.02
"full-length WT mouse HVEM-mCherry, on cells (from UniProt Q80WM9) G72D; V74D",ratio to parent,mBTLA protein,0.01
"mouse BTLA, soluble protein used as analyte in the Octet experiment (ligand, UniProt Q7TSA3 30-183, looked up, mouse BTLA (CD272), soluble form; also called mBTLA) EKATKRNDEECPVQLTITRNSKQSARTGELFKIQCPVKYCVHRPNVTWCKHNGTICVPLEVSPQLYTSWEENQSVPVFVLHFKPIHLSDNGSYSCSTNFNSQVINSHSVTIHVRERTQNSSEHPLITVSDIPDATNASGPSTMEERPGRTWLLY",fold reduction of binding against WT mHVEM,[5],~5 fold
same,Kd,[6],1.1 µM
same,Kd,[7],5.3 µM
B1,stoichiometry N,[8],3
"human HVEM extracellular domain (L39-C162) (domain or fragment, UniProt Q92956 39-162, looked up, human HVEM (TNFRSF14), extracellular domain, residues L39-C162; positions numbered with initiation codon = 1; Cloned into pMT/BiP/V5-His for His-tag fusion protein production; also called hHVEM; TNFRSF14) LPSCKEDEYPVGSECCPKCSPGYRVKEACGELTGTVCEPCPPGTYIAHLNGLSKCLQCQMCDPAMGLRASRNCSRTENAVCGCSPGHFCIVQDGDHCAACRAYATSSPGQRVQKGGTESQDTLC",stoichiometry N,[9],3 hHVEM per hLIGHT homotrimer
"single chain homotrimeric mLIGHT extracellular domain (G73-V239) connected by two (GGGGS)4 linkers (ligand, mouse, mouse LIGHT (TNFSF14) extracellular domain G73-V239, first copy; linker, printed as (GGGGS)4; mouse LIGHT (TNFSF14) extracellular domain G73-V239, second copy; mouse LIGHT (TNFSF14) extracellular domain G73-V239, third copy; Three copies of the extracellular domain on one chain; source: Expi293, transfected, purified (Ni resin, SEC)) GGKGSWEKLIQDQRSHQANPAAHLTGANASLIGIGGPLLWETRLGLAFLRGLTYHDGALVTMEPGYYYVYSKVQLSGVGCPQGLANGLPITHGLYKRTSRYPKELELLVSRRSPCGRANSSRVWWDSSFLGGVVHLEAGEEVVVRVPGNRLVRPRDGTRSYFGAFMVGGGGSGGGGSGGGGSGGGGSGGKGSWEKLIQDQRSHQANPAAHLTGANASLIGIGGPLLWETRLGLAFLRGLTYHDGALVTMEPGYYYVYSKVQLSGVGCPQGLANGLPITHGLYKRTSRYPKELELLVSRRSPCGRANSSRVWWDSSFLGGVVHLEAGEEVVVRVPGNRLVRPRDGTRSYFGAFMVGGGGSGGGGSGGGGSGGGGSGGKGSWEKLIQDQRSHQANPAAHLTGANASLIGIGGPLLWETRLGLAFLRGLTYHDGALVTMEPGYYYVYSKVQLSGVGCPQGLANGLPITHGLYKRTSRYPKELELLVSRRSPCGRANSSRVWWDSSFLGGVVHLEAGEEVVVRVPGNRLVRPRDGTRSYFGAFMV",binding result,[10],binds
same,binding result,[11],binds
same,Kd,[12],0.0293 µM
same,Kd,[6],0.0162 µM
same,Kd,[7],31.7 µM
"mouse CD160 (30I-154H) with C-terminal …, biotinylated (ligand, biotin) IHVTSSASQKGGRLDLTCTLWHKKDEAEGLILFWCKDNPWNCSPETNLEQLRVKRDPETDGITEKSSQLVFTIEQATPSDSGTYQCCARSQKPEIYIHGHFLSVLVTGNHTEIRQRQRSHPDFSH",Kd,[6],11.6 µM
same,Kd,[7],33.5 µM
"mouse CD160 (30I-154H) with C-terminal [residues removed], biotinylated (ligand, UniProt O88875 30-154, looked up, biotin, mouse CD160 residues 30I-154H; also called mCD160; mCD160-biotin) IHVTSSASQKGGRLDLTCTLWHKKDEAEGLILFWCKDNPWNCSPETNLEQLRVKRDPETDGITEKSSQLVFTIEQATPSDSGTYQCCARSQKPEIYIHGHFLSVLVTGNHTEIRQRQRSHPDFSH",fold reduction of binding against WT mHVEM,[5],~3 fold
same,binding result,[11],binds
